Test results taken from article PMC5817196, “DprA from Neisseria meningitidis: properties and role in natural competence for transformation” (Microbiology, 2017).

B1: single-stranded binding protein of Neisseria meningitidis (SSBNm), recombinant (natural protein, UniProt P66848 1-174, looked up)
chain: MSLNKVILIGRLGRDPEVRYMPNGEAVCNFSVATSETWNDRNGQRVERTEWHNITMYRKLAEIAGQYLKKGGLVYLEGRIQSRKYQGKDGIERTAYDIVANEMKMLGGRNENSGGAPYEEGYGQSQEAYQRPAQQSRQPASDAPSHPQEAPAAPRRQPVPAAAPVEDIDDDIPF
modifications: RED-NHS dye (Monolith NT Protein Labeling kit RED-NHS), degree of labelling 0.3 to 0.6, in the MST experiment only
notes: Theoretical size of the tetramer is printed as 83.4 kDa
B2: DNA processing chain A from Neisseria meningitidis MC58 (DprANm), recombinant, N-terminal 6xHis-tag (natural protein, UniProt Q9K1K1 1-397, looked up)
chain: MTEDERFAWLQLAFTPYIGAESFLLLMRRFGSAQNALSAPAEQVAALIRHKQALEAWRNAEKRALARQAAEAALEWEMRDGCRLMLLQDEDFPEMLTQGLTAPPVLFLRGNVQLLHKPSAAIVGSRHATPQAMRIAKDFGKSLGGKGIPVVSGMASGIDTAAHQGALQAEGGTIAVWGTGIDRIYPPVNKNLAYEIAEKGLIVSEFPIGTRPYAGNFPRRNRLIAALSQVTLVVEAALESGSLITARLAAEMGREVMAVPGSIDNPHSKGCHKLIKDGAKLVECLDDILNECPGLLQNTGASSYSINKGIPEKRITAVQTASDQLSLPEGKMPSEKTENRPVGGSILDRMGFDPVHPDVLAGQLAMPAADLYAALLELELDGSVAAMPGGRYQRIRT
notes: DprA (DNA processing chain A) of Neisseria meningitidis strain MC58, locus NMB0116; the dprA gene was amplified with primers EH041 and EH042 and inserted into pET28b(+); Theoretical size of the dimer is printed as 89.6 kDa; also called Nm DprA; source: E. coli ER2566 carrying pMGM1 (pET28b(+)), purified (Ni-NTA, dialysed)
B3: C80 (ssDNA)
DNA: GCTGATCAACCCTACATGTGTAGGTAACCCTAACCCTAACCCTAAGGACAACCCTAGTGAAGCTTGTAACCCTAGGAGCT
B4: GTB25 (ssDNA)
DNA: GCCGTCTGAAAGCTCTAGGCCGTCTGAAACGTCAGGCCGTCTGAAAGCTCTAGGCCGTCTGAAACGTCAGGCCGTCTGAA
B5: dT40 (ssDNA)
DNA: TTTTTTTTTTTTTTTTTTTTTTTTTTTTTTTTTTTTTTTT
B6: dT80 (ssDNA)
DNA: TTTTTTTTTTTTTTTTTTTTTTTTTTTTTTTTTTTTTTTTTTTTTTTTTTTTTTTTTTTTTTTTTTTTTTTTTTTTTTTT

Assays:
[1] = target: the molecule itself; experiment: SEC-MALS; Superdex 200 10/300 GL with Malvern Viscotek UV, RI and static light-scattering detectors; calibrated with BSA; conditions similar to the co-size-exclusion assay; size from the main eluting peak
[2] = target: B2; experiment: MST; RED-NHS-labelled SSBNm (23.6 nM) or SSBNmΔ8C (25.6 nM), DprANm titrated; 20 mM HEPES pH 7.5, 300 mM NaCl, 0.05 % Tween 20, 0.1 % Pluronic F-127, 0.1 % PEG 8000, 2 mM DTT; 22 °C, 20 % MST power, Monolith NT.115; details: both partners purified
DprA (DprANm) [3] = target: T1, DprA (DprANm) (Neisseria meningitidis MC58, UniProt Q9K1K1 1-397); experiment: EMSA; 0.5-80 nM DprA; stronger than dsDNA G80C80 (P=0.034); EMSA: 40 mM Tris-HCl pH 8, 2.5 mM EDTA, 2 mM MgCl2, 100 mg/ml BSA (so in the source), 6% glycerol, 1 mM DTT; 30 min on ice; 5% native PAGE at 4 °C; details: protein: recombinant; tags: N-terminal 6xHis (pET28b, cleavable); chain copies: 2; label: 32P end label
T1 sequence: B2 chain

DprA (DprANm) [4] = target: T1, DprA (DprANm); experiment: EMSA; 20-40 nM DprA; affinity similar to C80; EMSA: 40 mM Tris-HCl pH 8, 2.5 mM EDTA, 2 mM MgCl2, 100 mg/ml BSA (so in the source), 6% glycerol, 1 mM DTT; 30 min on ice; 5% native PAGE at 4 °C; details: protein: recombinant; tags: N-terminal 6xHis (pET28b, cleavable); chain copies: 2; label: 32P end label
DprA (DprANm) [5] = target: T1, DprA (DprANm); experiment: EMSA; 30 nM DprA; complex dissociates easily during electrophoresis; EMSA: 40 mM Tris-HCl pH 8, 2.5 mM EDTA, 2 mM MgCl2, 100 mg/ml BSA (so in the source), 6% glycerol, 1 mM DTT; 30 min on ice; 5% native PAGE at 4 °C; details: protein: recombinant; tags: N-terminal 6xHis (pET28b, cleavable); chain copies: 2; label: 32P
DprA (DprANm) [6] = target: T1, DprA (DprANm); experiment: EMSA; 30 nM DprA; very stable complex; EMSA: 40 mM Tris-HCl pH 8, 2.5 mM EDTA, 2 mM MgCl2, 100 mg/ml BSA (so in the source), 6% glycerol, 1 mM DTT; 30 min on ice; 5% native PAGE at 4 °C; details: protein: recombinant; tags: N-terminal 6xHis (pET28b, cleavable); chain copies: 2; label: 32P

Question: Which “stoichiometry N” value [1] does the source give for B1 here?
Answer: The value was 4.

Question: What about the Kd [2] of the same binder?
Answer: Its Kd is 1460 ± 544 nM.

Question: How did the “stoichiometry N” value [1] turn out when B2 was run?
Answer: The value was 2.

Question: Does B3 bind (DprA (DprANm) [3])?
Answer: Result: binds

Question: Does B4 bind (DprA (DprANm) [4])?
Answer: Result: binds

Question: Does B5 bind (DprA (DprANm) [5])?
Answer: Result: binds

Question: Does B6 bind (DprA (DprANm) [6])?
Answer: Result: binds
